# Laboratory results from the DeepSol protein solubility set.
# Assay: soluble on expression in E. coli; label from the status in PepcDB or PDB records
row,Sequence,soluble on expression in E. coli
1,MHHHHHHMELSLASITVPLESIKPSNILPVTVYDQHGFRILFHFARDPLPGRSDVLVVVVSMLSTAPQPIRNIVFQSAVPKVMKVKLQPPSGTELPAFNPIVHPSAITQVLLLANPQKEKVRLRYKLTFTMGDQTYNEMGDVDQFPPPETWGSL,soluble
2,MGSDKIHHHHHHMQSNRLTESSAEIHDMSLRIYQTPVQHLPEDLYVPPQAFAIWLEQFAGPLDFLLYLVKKNNVDLTRMPILPITEQYLAYISKLDTNHFELAGDYLLMASTLIAIKTELLLPMPEMPTDERDPKAELIERLEEYTQVKAASQRLDNLIRLERDVFLAMVSMPNQDIMNSELPSYSPTLLIDSLFKMQLQPDYQMHSIKVDAVPLADRIASISRQLSTDGARSFHELLDKAQGKIGVVVSFVAVLELIKRQLIGVVANNVDSGVSTATNADGSLSTHSDLLEKLTLEWLA,not soluble
3,MSLIDYQEVLSRYRPTQEEENKLKIISDDIIRKINSICRSRGLRAEAVIVGSYAKGTNLRDGDLDIFIAFDRDYPEEIINTEGLHIGHAVIPNGREKYAEHPYVSGEIGGVKIDVVPCYKMSFGDKKISAVDRTLLHTEYVNGHLDEKGRDEVRLLKIFTKSIGVYGAEARTFGFSGYLCELLVIRFGSFENVIRYFSKAKGRVLIDLDERFRDPMVLIDPVDPDRNVASPVSLESLSRMKIASKMFLSSPDEGFFQIEHNGKNVQYHDRGTCIMIYSLPKPDLTDDVIYPQVYRFRSVLQKIMESHEIRVISSEIDVSDRIYVLIETPACAEERIRVHTGPPVDTDNAVDFVNSWKARDRSRGPYIVADRLYVDVFTGQRSIEDIVRQEIFNYSIGKNLDRFKKSMEIMKFNVGMKSLPVLDKFFGADVFRKEGHHHHHH,soluble
4,MKAYQRYRFPSLRSVARDASARDSAALAAEAQCADIDARIEEGFRQGREDGYRDGFEHGEAEGMKQGREAGFAAGAQQARDALRSEYAGIAKTLDAMRDAFVRVQAEYLAARRTELVDVVAKVAKQVIRCELTLQPSQMAALIEETLGTMPASSDAPEVHLSPDDHERLAGLLPERARHWRLVPDARLEAGECRVLLGGNEADAGCQHRLDACVERIGEQLPGAPDVEAAAT,not soluble
5,MATAETSVLIGYLSDYGYSDRLSQAIGRGLVKTGVAVEMVDLRAVDPQELIEAVSSARGIVLGTPPSQPSEAVATALSTIFAAAHNKQAIGLFDSYGGDDEPIDALLAQFRNLGLHTAFPPIRVKDQPTEAIYQQCEESGTDLGQWLTRADAIQTMKSLEHHHHHH,not soluble
6,QPAQSGAFLVDQSQLTQSSILIGHQGGQLSNPDYPELSVMNGVINGFGGRLFNEIRSRQGLAYSVYGVWSPRYDYDGQFIAGGSTRTEATVPFITAMKGEIKRLQTELITPAELAYAKDSILNSFVFNFEDPGQTLSRLMRYEYYGYPEDFIFQYQREVEATTIEDVQRVAQTYLKPEQLTVLVVGN,not soluble
7,MYYAIPTVVVSECLGFSACRYNGDIIRNSFVSRLGEFARLVPVCPEVAIGLGVPRETVRLVKRGEERRLVQSSTNRDWTREMNEFATSFFGQVGEVDGFILKGRSPTCGIKDVRVYDDEESGMVVEKGVGLFAEHVFRRFPNAAIEEEGRLTNAAIREHFLTKVFALALFREVKAKRSMKALVQFHSEHKYLFMAYSQTWLKQLGRLVANRDRLPVEQVLEAYGQGLHALFARAPQRRSHVNVCQHLMGYFKKEMSAKEKQYVLELLAQYRAQQLPLSSVASVLKSWAIREENDYLLQQRYFAPYPPALLDVRDSGKGREKAV,not soluble
8,MQAYTQTLIHRLDKLNRQRIERALALMDLQSQRVFHLIPALFQFNHPLIPGYFSADTPFGIHLFEANPIQQQFIDDAQLTLGEPLTPADNPAILGLYTMGSTSSIGQSTSSDLDIWVCVSAQMSCEARDNLSSKCLLITDWAKSQGVEANFFIMNEERFRHNHSEALSGENCGSSQHLLLLDEFYRSAVRLAGKRLLWQIVPPEMEECYDEYVHELCSNGYLNCNEWIDFGKLNRIPAEEYFGANLWQLYKSIDSPYKSVLKAILLEAYSWEYPHTQLLSIDSKRRFFADEPDLYGMDSYYQMLEKVTRYLVRIGDSTRLDLVRRCFYLKTHEKLSREPGVGSMPWRREALRELTSEWQWSADLIAELDNRRHWKVEQVKVVHHALLDALMLSYRNLIQFARRNDITSAISPQDISILARKLYAAFEVLPGKVTLLNPQISPDLHEPDLSFIEVCAGRTNKPGWYLYKQPLQAQRLIGQPYLEHNEYLSKLVAWAFFNGLITESTRLHAVVREAQLDIDKFYQMVSDLRNTFSLRKRRPTMQALANPCEISQLAMFINFEHDPTSELSGKALKVDLKNIDIFSFGAEQKCLVGSVDLVYRNSWQEVRTLHFEGQTAMLDALKTVLGKMHQDALPPESVDVFCYSKNLRGVMRNLVYQLLAECIDLRLKPMEQEKRRRFKALRMGDQMYGLFFERRGVSVQKLENSVDFYRSISTNKLKGSPLLMLDRDQDYPLPAVVDSFASEGLVQFFFEDTEKGFNIYVLDEANRVEVYHQFNGEKDEMIASVNSFYTSMLDDSNKLGAKSINFNLPQYYQIIHPEEGETYVVPYRNDSAVYSKPSQVVNA,not soluble
9,MPPATNNSREEKEEETTDLSAGKGDCGIKAAATIYVNCELLGGAKKRKKKVYIIPKKNNISQRKSSSPSPKYFKIDENGKISRLPTGIPTVSIQREAFMTQPTTLRKMSQHPCR,soluble
10,GPGSAPSKDGHVFEMSRPEQAAYGLAMSLVRWHAFNRFCANCGTATDPTRDVGFSRFCPKCRKQHFPQLVPAVLVAVLDGKGNVILSQRRKESKVLTLLSGFVLHGESAEETVRREVEEESGARVSKVRYIGSQPWPYPYLMMMCYYAVADASPSLVVDASELERVMWVSKQDVRRALEGQHSDMELRGPGTTPYAMLKPWVDGKVDDRGRITKPQSQL,not soluble
11,MHITNRSHLADRYGKRTSAEFLLHERPILSFPISLAAIPKEARYLSWELIDYDTIPLIGFPFIHWLAANVPVTNEIPEDFSRTALKPTIQGKNSLASPLGKQMIPALATETLPELTERYLGLSPRSGVHTYTLYVYTTKNPLNLKEGFFANELHQALNDQLLAKAKFEFLY,not soluble
12,MGSDKIHHHHHHVTSVSLGMPSAPPPVLAPRRKTRQIKVGSVGVGSDSPISVQSMTTTPTTDINATLQQIAELTASGCDIVRVACPSADDAEALPIIARKSQIPVIADIHFQPKYVFAAIEAGCAAVRVNPGNIRKFDDQVKEIARAAKDHGTSIRIGVNAGSLEPGILKKYGKATPEALVESAVWEASLFEEHGFHDFKISVKHNDPVIMVAAYEMLAEKGDWPLHLGVTEAGPAFQGTIKSATAFGALLSRGIGDTIRVSLSAPPVEEIKVGNQILQSLNLRPRKLEIVSCPSCGRAQVDVYTLAEQVTAGLEGMEIPLRVAVMGCVVNGPGEAREADLGVASGNGKGQIFVKGEVIKTVPESEIVETLIEEAMRIAEEMGEADGEDAVKGSPVVSVS,not soluble
13,MHHHHHHSSGVDLGTENLYFQSMGQCSVLLFPGQGSQVVGMGRGLLNYPRVRELYAAARRVLGYDLLELSLHGPQETLDRTVHCQPAIFVASLAAVEKLHHLQPSVIENCVAAAGFSVGEFAALVFAGAMEFAEGLYAVKIRAEAMQEASEAVPSGMLSVLGQPQSKFNFACLEAREHCKSLGIENPVCEVSNYLFPDCRVISGHQEALRFLQKNSSKFHFRRTRMLPVSGAFHTRLMEPAVEPLTQALKAVDIKKPLVSVYSNVHGHRYRHPGHIHKLLAQQLVSPVKWEQTMHAIYERKKGRGFPQTFEVGPGRQLGAILKSCNMQAWKSYSAVDVL,soluble
14,MSSRKGTRSSRIVTLERSANSSLSNNGGGDDSFGSTLLETSRLQEKDHLTSLNSRLATYIDKVRQLEQENNRLQVQIRDIEVVEKKEKSNLADRFEAEKARLRRALDSAQDELAKYRIEYDAAKVEVKKLKPQVEKLERELAGAEEQALHAQSIADQSQAKQKTLQARNDKLVVENDDLKKQNITLRDTVEGLKKAVEDETLLRTAANNKIKALEEDLAFALQQHKGELEEVRHKRQVDMTTYAKQINDEYQSKLQDQIEEMRAQFKNNLHQNKTAFEDAYKNKLNAARERQEEAVSEAIHLRARVRDLETSSSGNASLIERLRSELDTLKRSFQEKLDDKDARIAELNQEIERMMSEFHDLLDVKIQLDAELKTYQALLEGEEERLNLTQEAPQNTSVHHVSFSSGGASAQRGVKRRRVVDVNGEDQDIDYLNRRSKLNKETVGPVGIDEVDEEGKWVRVANNSEEEQSIGGYKLVVKAGNKEASFQFSSRMKLAPHASATVWSADAGAVHHPPEVYVMKKQQWPIGDNPSARLEDSEGDTVSSITVEFSESSDPSDPADRCSIM,not soluble
